The chains are these.
B1: 366_F02 (antibody, V domains shown)
VH: EVQLLESGGGLVQPGGSLRLSCAASGFTFSSYGMNWVRQAPGKGLEWVSGINYNSGYTGYADSVKGRFTISRDNSKNTLYLQMNSLRAEDTAVYYCARGANWHDTHLDYWGQGTLVTVSS
VL: DIQMTQSPSSLSASVGDRVTITCRASQSILTYLNWYQQKPGKAPKLVIYAATSRHSGVPSRFSGSGSGTDFTLTISSLQPEDFATYYCQQSYDNPLTFGGGTKVEIK
B2: 367_B12 (antibody, V domains shown)
VH: EVQLLESGGGLVQPGGSLRLSCAASGFTFSSYGMHWVRQAPGKGLEWVASINYNGGYKSYADSVKGRFTISRDNSKNTLYLQMNSLRAEDTAVYYCARGANWHDTHLDYWGQGTLVTVSS
VL: DIQMTQSPSSLSASVGDRVTITCRASQSILSYVNWYQQKPGKAPKLVIYAATSLASGVPSRFSGSGSGTDFTLTISSLQPEDFATYYCQQSYDTPLTFGGGTKVEIK
B3: 367_D12 (antibody, V domains shown)
VH: EVQLLESGGGLVQPGGSLRLSCAASGFTFSSYSMNWVRQAPGKGLEWVSSINYNGGYTGYADSVKGRFTISRDNSKNTLYLQMNSLRAEDTAVYYCARGANWHDTHLDYWGQGTLVTVSS
VL: DIQMTQSPSSLSASVGDRVTITCRASQSIVSYVNWYQQKPGKAPKLVIYAATSRASGVPSRFSGSGSGTDFTLTISSLQPEDFATYYCQQSYESPLTFGGGTKVEIK
B4: 367_A03 (antibody, V domains shown)
VH: EVQLLESGGGLVQPGGSLRLSCAASGFTFDSYGMNWVRQAPGKGLEWVAGINYNGGYTSYADSVKGRFTISRDNSKNTLYLQMNSLRAEDTAVYYCARGANWHDTALDYWGQGTLVTVSS
VL: DIQMTQSPSSLSASVGDRVTITCRASQSILTYVNWYQQKPGKAPKLLIYATTSRHSGVPSRFSGSGSGTDFTLTISSLQPEDFATYYCQQSYDSPLTFGGGTKVEIK
B5: 367_A10 (antibody, V domains shown)
VH: EVQLLESGGGLVQPGGSLRLSCAASGFTFSSYGMNWVRQAPGKGLEWVAGINYNSGYTSYADSVKGRFTISRDNSKNTLYLQMNSLRAEDTAVYYCARGANWHDTHLDYWGQGTLVTVSS
VL: DIQMTQSPSSLSASVGDRVTITCRASQSIITYVNWYQQKPGKAPKLLIYAATSLASGVPSRFSGSGSGTDFTLTISSLQPEDFATYYCQQSYDLPLTFGGGTKVEIK
B6: 367_D06 (antibody, V domains shown)
VH: EVQLLESGGGLVQPGGSLRLSCAASGFTFDSYSMNWVRQAPGKGLEWVAGINYNGGYTSYADSVKGRFTISRDNSKNTLYLQMNSLRAEDTAVYYCARGANWHDTHLDYWGQGTLVTVSS
VL: DIQMTQSPSSLSASVGDRVTITCRASQSISTYLNWYQQKPGKAPKLVIYAATSLASGVPSRFSGSGSGTDFTLTISSLQPEDFATYYCQQSYNSPLTFGGGTKVEIK
B7: 367_G01 (antibody, V domains shown)
VH: EVQLLESGGGLVQPGGSLRLSCAASGFTFDSYGMNWVRQAPGKGLEWVASINYNSGYTGYADSVKGRFTISRDNSKNTLYLQMNSLRAEDTAVYYCARGANWHDTHLDYWGQGTLVTVSS
VL: DIQMTQSPSSLSASVGDRVTITCRASQSISSYLNWYQQKPGKAPKLVIYAATSRASGVPSRFSGSGSGTDFTLTISSLQPEDFATYYCQQSYDLPLTFGGGTKVEIK
B8: 367_C07 (antibody, V domains shown)
VH: EVQLLESGGGLVQPGGSLRLSCAASGFTFSSYSMNWVRQAPGKGLEWVSSINYNSGYTGYADSVKGRFTISRDNSKNTLYLQMNSLRAEDTAVYYCARGANWHDTHLDYWGQGTLVTVSS
VL: DIQMTQSPSSLSASVGDRVTITCRASQSILTYVNWYQQKPGKAPKLLIYAATSRASGVPSRFSGSGSGTDFTLTISSLQPEDFATYYCQQSYNLPLTFGGGTKVEIK
B9: 367_E05 (antibody, V domains shown)
VH: EVQLLESGGGLVQPGGSLRLSCAASGFTFSSYGMNWVRQAPGKGLEWVAGINYNGGYTSYADSVKGRFTISRDNSKNTLYLQMNSLRAEDTAVYYCARGANWHDTHLDYWGQGTLVTVSS
VL: DIQMTQSPSSLSASVGDRVTITCRASQSILSYLNWYQQKPGKAPKLLIYAATSRHSGVPSRFSGSGSGTDFTLTISSLQPEDFATYYCQQSYDSPLTFGGGTKVEIK
B10: 367_H03 (antibody, V domains shown)
VH: EVQLLESGGGLVQPGGSLRLSCAASGFTFSSYGMNWVRQAPGKGLEWVAGINYNSGYTSYADSVKGRFTISRDNSKNTLYLQMNSLRAEDTAVYYCARGANWHDTHLDYWGQGTLVTVSS
VL: DIQMTQSPSSLSASVGDRVTITCRASQSIITYVNWYQQKPGKAPKLLIYAATSLASGVPSRFSGSGSGTDFTLTISSLQPEDFATYYCQQSYDLPLTFGGGTKVEIK
B11: 367_G04 (antibody, V domains shown)
VH: EVQLLESGGGLVQPGGSLRLSCAASGFTFSSYSMNWVRQAPGKGLEWVAGINYNSGYTSYADSVKGRFTISRDNSKNTLYLQMNSLRAEDTAVYYCARGANWHDTHLDYWGQGTLVTVSS
VL: DIQMTQSPSSLSASVGDRVTITCRASQSILSYLNWYQQKPGKAPKLVIYAATSRASGVPSRFSGSGSGTDFTLTISSLQPEDFATYYCQQSYDSPLTFGGGTKVEIK
B12: 367_D08 (antibody, V domains shown)
VH: EVQLLESGGGLVQPGGSLRLSCAASGFTFSDYSMNWVRQAPGKGLEWVAGINYNGGYTSYADSVKGRFTISRDNSKNTLYLQMNSLRAEDTAVYYCARGANWHDTHLDYWGQGTLVTVSS
VL: DIQMTQSPSSLSASVGDRVTITCRASQSILSYLNWYQQKPGKAPKLVIYAATSRHSGVPSRFSGSGSGTDFTLTISSLQPEDFATYYCQQSDDLPLTFGGGTKVEIK
B13: 366_G06 (antibody, V domains shown)
VH: EVQLLESGGGLVQPGGSLRLSCAASGFTFSSYGMHWVRQAPGKGLEWVASINYNGGYTGYADSVKGRFTISRDNSKNTLYLQMNSLRAEDTAVYYCARAANWHDTHLDYWGQGTLVTVSS
VL: DIQMTQSPSSLSASVGDRVTITCRASQSIVSYVNWYQQKPGKAPKLVIYAATSRASGVPSRFSGSGSGTDFTLTISSLQPEDFATYYCQQSYDNPLTFGGGTKVEIK
B14: 367_A06 (antibody, V domains shown)
VH: EVQLLESGGGLVQPGGSLRLSCAASGFTFDSYGMNWVRQAPGKGLEWVASINYNGGYKGYADSVKGRFTISRDNSKNTLYLQMNSLRAEDTAVYYCARGANWHDTHLDYWGQGTLVTVSS
VL: DIQMTQSPSSLSASVGDRVTITCRASQSILSYVNWYQQKPGKAPKLLIYAATSRHSGVPSRFSGSGSGTDFTLTISSLQPEDFATYYCQQSYDTPLTFGGGTKVEIK
B15: 366_D03 (antibody, V domains shown)
VH: EVQLLESGGGLVQPGGSLRLSCAASGFTFDSYGMHWVRQAPGKGLEWVSSINYNGGYTGYADSVKGRFTISRDNSKNTLYLQMNSLRAEDTAVYYCARAANWHDTHLDYWGQGTLVTVSS
VL: DIQMTQSPSSLSASVGDRVTITCRASQSILSYVNWYQQKPGKAPKLLIYAATSRASGVPSRFSGSGSGTDFTLTISSLQPEDFATYYCQQSYDLPLTFGGGTKVEIK
B16: 367_B04 (antibody, V domains shown)
VH: EVQLLESGGGLVQPGGSLRLSCAASGFTFDSYSMNWVRQAPGKGLEWVSGINYNSGYKSYADSVKGRFTISRDNSKNTLYLQMNSLRAEDTAVYYCARGANWHDTHLDYWGQGTLVTVSS
VL: DIQMTQSPSSLSASVGDRVTITCRASQSILSYLNWYQQKPGKAPKLLIYAATSRASGVPSRFSGSGSGTDFTLTISSLQPEDFATYYCQQSYELPLTFGGGTKVEIK
B17: 367_A12 (antibody, V domains shown)
VH: EVQLLESGGGLVQPGGSLRLSCAASGFTFSSYGMNWVRQAPGKGLEWVSGINYNSGYTSYADSVKGRFTISRDNSKNTLYLQMNSLRAEDTAVYYCARGANWHDTHLDYWGQGTLVTVSS
VL: DIQMTQSPSSLSASVGDRVTITCRASQSILSYLNWYQQKPGKAPKLLIYAATSLHSGVPSRFSGSGSGTDFTLTISSLQPEDFATYYCQQSYNNPLTFGGGTKVEIK
B18: 366_F10 (antibody, V domains shown)
VH: EVQLLESGGGLVQPGGSLRLSCAASGFTFDSYSMNWVRQAPGKGLEWVAGINYNGGYTGYADSVKGRFTISRDNSKNTLYLQMNSLRAEDTAVYYCARAANWHDTHLDYWGQGTLVTVSS
VL: DIQMTQSPSSLSASVGDRVTITCRASQSIVSYLNWYQQKPGKAPKLVIYAATSRASGVPSRFSGSGSGTDFTLTISSLQPEDFATYYCQQSYDTPLTFGGGTKVEIK
B19: 367_A08 (antibody, V domains shown)
VH: EVQLLESGGGLVQPGGSLRLSCAASGFTFDSYGMNWVRQAPGKGLEWVAGINYNGGYTSYADSVKGRFTISRDNSKNTLYLQMNSLRAEDTAVYYCARGANWHDTHLDYWGQGTLVTVSS
VL: DIQMTQSPSSLSASVGDRVTITCRASQSILTYLNWYQQKPGKAPKLLIYAVTSRASGVPSRFSGSGSGTDFTLTISSLQPEDFATYYCQQSYDSPLTFGGGTKVEIK
B20: 367_D03 (antibody, V domains shown)
VH: EVQLLESGGGLVQPGGSLRLSCAASGFTFDSYSMNWVRQAPGKGLEWVSSINYNGGYTGYADSVKGRFTISRDNSKNTLYLQMNSLRAEDTAVYYCARGANWHDTHLDYWGQGTLVTVSS
VL: DIQMTQSPSSLSASVGDRVTITCRASQSIITYLNWYQQKPGKAPKLLIYAATSRASGVPSRFSGSGSGTDFTLTISSLQPEDFATYYCQQSYDTPLTFGGGTKVEIK
B21: 367_C10 (antibody, V domains shown)
VH: EVQLLESGGGLVQPGGSLRLSCAASGFTFDSYSMNWVRQAPGKGLEWVSGINYNGGYTSYADSVKGRFTISRDNSKNTLYLQMNSLRAEDTAVYYCARGANWHDTALDYWGQGTLVTVSS
VL: DIQMTQSPSSLSASVGDRVTITCRASQSIVSYVNWYQQKPGKAPKLLIYAVTSRASGVPSRFSGSGSGTDFTLTISSLQPEDFATYYCQQSYETPLTFGGGTKVEIK

This assay deals with human Fc (human). Description: ELISA, negative control.
In turn, B1 showed an optical density of 0.371 OD.

B2: the optical density stood at 0.414 OD.

As to B3, the optical density was 0.309 OD.

The molecule B4 registered an optical density of 0.347 OD.

As to B5, the optical density came to 0.315 OD.

As to B6, the optical density worked out at 0.283 OD.

B7 yielded an optical density of 0.356 OD.

Take B8: the optical density stood at 0.387 OD.

For B9, the optical density worked out at 0.333 OD.

In turn, B10 registered an optical density of 0.377 OD.

Take B11: the optical density is 0.287 OD.

Molecule B12 had an optical density of 0.237 OD.

The molecule B13 came in with an optical density of 0.341 OD.

On to B14, for which the optical density came to 0.378 OD.

For the molecule B15, the optical density is 0.318 OD.

Turning to B16, the optical density turned out to be 0.265 OD.

For B17, the optical density is 0.39 OD.

As to B18, the optical density was 0.28 OD.

Molecule B19 registered an optical density of 0.252 OD.

As to B20, the optical density came out at 0.29 OD.

B21 yielded an optical density of 0.233 OD.

The record behind these values is patent US20210380703A1.
